Molecular target: SV40 large T antigen (Tag) (Simian virus 40) (UniProt P03070)
Experiment: DSF

Sequence of SV40 large T antigen (Tag) (Simian virus 40) (P03070 whole entry): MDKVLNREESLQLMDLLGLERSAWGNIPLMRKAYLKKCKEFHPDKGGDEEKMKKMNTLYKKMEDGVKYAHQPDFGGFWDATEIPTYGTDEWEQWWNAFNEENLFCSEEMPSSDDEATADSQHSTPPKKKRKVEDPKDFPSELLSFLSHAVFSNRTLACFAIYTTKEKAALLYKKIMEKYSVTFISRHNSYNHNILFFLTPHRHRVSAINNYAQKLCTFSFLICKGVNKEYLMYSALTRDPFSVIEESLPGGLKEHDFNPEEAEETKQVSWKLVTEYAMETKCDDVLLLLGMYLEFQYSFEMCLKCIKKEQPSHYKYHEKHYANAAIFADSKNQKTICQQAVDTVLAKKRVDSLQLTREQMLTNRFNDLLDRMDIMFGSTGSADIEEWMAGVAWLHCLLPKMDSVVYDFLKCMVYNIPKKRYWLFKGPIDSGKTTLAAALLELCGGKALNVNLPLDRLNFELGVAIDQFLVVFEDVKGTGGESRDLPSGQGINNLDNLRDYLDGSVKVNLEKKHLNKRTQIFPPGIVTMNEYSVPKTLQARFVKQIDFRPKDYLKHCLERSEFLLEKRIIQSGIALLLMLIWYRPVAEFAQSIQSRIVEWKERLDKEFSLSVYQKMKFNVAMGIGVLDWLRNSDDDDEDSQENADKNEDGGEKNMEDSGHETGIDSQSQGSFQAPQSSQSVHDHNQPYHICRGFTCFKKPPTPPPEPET

Substance: Poly(dT)
- Kd: 40 nM

— article PMC7144908
